Among the data in publication PMC7094413 are stoichiometry N values, retold here.

For the assay, the target named is SARS-CoV nucleocapsid protein C-terminal domain (residues 248–365) (SARS-CoV TW1 strain). Nature of the assay: NMR structure.

As to “SARS-CoV nucleocapsid protein C-terminal domain (residues 248–365) (domain or fragment)”, the stoichiometry N stood at 2.
